We go through eight molecules from patent US20210260163A1 (ASKGENE PHARMA, published 2021).

Numbering of substitutions follows the chain as printed. Names and notes keep the numbering of the source.

Experiment [1] addresses T1, IL-2 ("IL-2 proteins" coated on the ELISA plate) (UniProt P60568 21-153, limits assumed). Nature of the experiment: ELISA, IL-2 coated, Fc-mask fusion titrated, pH 6.4. The procedure:
(§1) 10 μg/ml of IL-2 proteins in PBS were seeded to the 96-well plate at 100 μl/well and coated at 4 degree for overnight. The wells were washed by PBS three times and blocked with 100 μl 2% milk/PBS for 1 hr. Then the wells were washed three times by PBS and 100 μl protein samples with 3-fold serial dilution were added to the wells for 1 hr incubation at room temperature. After three times of PBS washing, 100 μl of HRP conjugated anti-IgG antibody were added and incubated at RT for 1 hr. Subsequently, the wells were washed again by PBS for 3 times, detection reagents were added and OD450 nm were measured.
(§2) In order to discover improved versions of the IL-2 antagonist or mask with higher folds of activations upon protease cleavage, a number of mutations in the IL-2Rβ extracellular domain were constructed.
Background: An ELISA detects its analyte on a solid surface through an enzyme-linked reagent.

For experiment [2], the target named is T1, IL-2 ("IL-2 proteins" coated on the …). Put plainly: ELISA, IL-2 coated, Fc-mask fusion titrated, pH 7.4. Here is the method: as §1, §2
For experiment [3] the target is unchanged. Nature of the experiment: ELISA, IL-2 coated, pH 6.4; reference understood as wild type (SEQ ID NO: 195). Here is the method:
as §1, §2

Experiment [4] shares this target. Put plainly: ELISA, IL-2 coated, pH 7.4. Here is the method: as §1, §2
Experiment [5] has the same target. Put plainly: ELISA, IL-2 coated, pH 7.4 and pH 6.4; reference understood as wild type (SEQ ID NO: 195). The procedure:
as §1, §2

The target is the same in experiment [6]. Nature of the experiment: ELISA, IL-2 coated, pH 6.4; reference wild type. Here is the method: as §1, §2

T1 sequence (P60568 21-153 limits assumed): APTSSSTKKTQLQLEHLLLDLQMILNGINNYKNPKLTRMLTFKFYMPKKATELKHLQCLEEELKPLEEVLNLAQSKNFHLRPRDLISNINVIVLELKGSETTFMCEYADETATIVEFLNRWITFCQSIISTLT

B1: Fc with LALA and hole mutation (L234A-L235A-Y407T) with beta subunit (SEQ ID NO: 195), expressed as homodimer (Fc fusion)
chain: DKTHTCPPCPAPEAAGGPSVFLFPPKPKDTLMISRTPEVTCVVVDVSHEDPEVKFNWYVDGVEVHNAKTKPREEQYNSTYRVVSVLTVLHQDWLNGKEYKCKVSNKALPAPIEKTISKAKGQPREPQVYTLPPSREEMTKNQVSLTCLVKGFYPSDIAVEWESNGQPENNYKTTPPVLDSDGSFFLTSKLTVDKSRWQQGNVFSCSVMHEALHNHYTQKSLSLSPGKGGGGSGGGGSGGGGSLSGRSDNHGGGGSAVNGTSQFTCFYNSRANISCVWSQDGALQDTSCQVHAWPDRRRWNQTCELLPVSQASWACNLILGAPDSQKLTTVDIVTLRVLCREGVRWRVMAIQDFKPFENLRLMAPISLQVVHVETHRCNISWEISQASHYFERHLEFEARTLSPGHTWEEAPLLTLKQKQEWICLETLTPDTQYEFQVRVKPLQGEFTTWSPWSQPLAFRTKPAALGKDT
notes: also called WT
Usually Kd stands for the constant that tells how readily two partners part at equilibrium. As to B1, the Kd turned out to be 269 µg/mL in experiment [1] and 219 µg/mL in experiment [2].

B2: Fc with LALA and hole mutation (L234A-L235A-Y407T) fused with beta subunit containing mutation (E136Q) (SEQ ID NO: 204), homodimer (Fc fusion)
chain: DKTHTCPPCPAPEAAGGPSVFLFPPKPKDTLMISRTPEVTCVVVDVSHEDPEVKFNWYVDGVEVHNAKTKPREEQYNSTYRVVSVLTVLHQDWLNGKEYKCKVSNKALPAPIEKTISKAKGQPREPQVYTLPPSREEMTKNQVSLTCLVKGFYPSDIAVEWESNGQPENNYKTTPPVLDSDGSFFLTSKLTVDKSRWQQGNVFSCSVMHEALHNHYTQKSLSLSPGKGGGGSGGGGSGGGGISSGLLSSGGSGGSLSGRSDNHGGGGSAVNGTSQFTCFYNSRANISCVWSQDGALQDTSCQVHAWPDRRRWNQTCELLPVSQASWACNLILGAPDSQKLTTVDIVTLRVLCREGVRWRVMAIQDFKPFENLRLMAPISLQVVHVETHRCNISWEISQASHYFQRHLEFEARTLSPGHTWEEAPLLTLKQKQEWICLETLTPDTQYEFQVRVKPLQGEFTTWSPWSQPLAFRTKPAALGKDT
For B2, the affinity in experiment [1], expressed as Kd, was 128 µg/mL. The “fold better binding affinity at pH 6.4” value in experiment [3] came out at 2 fold.

B3: Fc with LALA and hole mutation (L234A-L235A-Y407T) fused with beta subunit containing mutation (S69H) (SEQ ID NO: 201), homodimer (Fc fusion)
chain: B2 chain with S337H, Q404E
Turning to B3, in experiment [1], the dissociation constant Kd was 187 µg/mL. In experiment [3], the “fold better binding affinity at pH 6.4” value turned out to be 2 fold.

B4: Fc with LALA and hole mutation (L234A-L235A-Y407T) fused with beta subunit containing mutation (V75Q) (SEQ ID NO: 202), homodimer (Fc fusion)
chain: B2 chain with V343Q, Q404E
For B4, the binding result in experiment [4] is “no binding”.

B5: Fc with LALA and hole mutation (L234A-L235A-Y407T) fused with beta subunit containing mutation (D68E) (SEQ ID NO: 200), homodimer (Fc fusion)
chain: B2 chain with D336E, Q404E
As for B5, the Kd was found to be 118 µg/mL in experiment [1] and 124 µg/mL in experiment [2]. Moreover, the “fold increase of binding affinity at pH 7.4 and pH 6.4” value in experiment [5] is 2 fold.

B6: Fc with LALA and hole mutation (L234A-L235A-Y407T) fused with beta subunit containing mutation R15Y (SEQ ID NO: 199), homodimer (Fc fusion)
chain: B2 chain with R283Y, Q404E
For the molecule B6, the binding result in experiment [4] is recorded as “no binding”.

B7: Fc-mask fusion with beta subunit containing mutation (E136Q/H138R) (SEQ ID NO: 205), homodimer (Fc fusion)
chain: B2 chain with H406R
Regarding B7, the Kd in experiment [1] is 105 µg/mL; in experiment [2], 269 µg/mL. For the same molecule, the “fold enhancement of binding affinity at pH 6.4 against wild type” value in experiment [6] worked out at 2 fold.

B8: Fc with LALA and hole mutation (L234A-L235A-Y407T) fused with beta subunit containing mutation (V75F) (SEQ ID NO: 203), homodimer (Fc fusion)
chain: B2 chain with V343F, Q404E
Turning to B8, the binding result in experiment [4] was “no binding”.
